# Patent US20200040058A1 (JULIUS MAXIMILIANS UNIVERSIT T W RZBURG, published 2020)
# B1: humanized R12 ROR1 CAR (other)
# chain: QVQLVESGGALVQPGGSLTLSCKASGFDFSAYYMSWVRQAPGKGLEWIATIYPSSGKTYYAASVQGRFTISADNAKNTVYLQMNSLTAADTATYFCARDSYADDGALFNIWGQGTLVTVSSGGGGSGGGGSGGGGSQLVLTQSPSVSAALGSSAKITCTLSSAHKTDTIDWYQQLAGQAPRYLMYVQSDGSYEKRSGVPDRFSGSSSGADRYLIISSVQADDEADYYCGADYIGGYVFGGGTQLTVGESKYGPPCPPCPMFWVLVVVGGVLACYSLLVTVAFIIFWVKRGRKKLLYIFKQPFMRPVQTTQEEDGCSCRFPEEEEGGCELRVKFSRSADAPAYQQGQNQLYNELNLGRREEYDVLDKRRGRDPEMGGKPRRKNPQEGLYNELQKDKMAEAYSEIGMKGERRRGKGHDGLYQGLSTATKDTYDALHMQALPPR
# notes: Chimeric antigen receptor with an scFv targeting domain, on primary human T cells; also called hR12 CAR; hR12
# B2: non-humanized R12 ROR1 CAR (other)
# chain: QEQLVESGGRLVTPGGSLTLSCKASGFDFSAYYMSWVRQAPGKGLEWIATIYPSSGKTYYATWVNGRFTISSDNAQNTVDLQMNSLTAADRATYFCARDSYADDGALFNIWGPGTLVTISSGGGGSGGGGSGGGGSELVLTQSPSVSAALGSPAKITCTLSSAHKTDTIDWYQQLQGEAPRYLMQVQSDGSYTKRPGVPDRFSGSSSGADRYLIIPSVQADDEADYYCGADYIGGYVFGGGTQLTVTG
# notes: Chimeric antigen receptor on primary human T cells; also called R12 CAR; non-humanized R12 CAR; not shown: spacer, transmembrane, 4-1BB and CD3z parts of the non-humanized CAR are not spelled out; construct described only by re
# B3: non-humanized 2A2 ROR1 CAR (other)
# chain: QVQLQQSGAELVRPGASVTLSCKASGYTFSDYEMHWVIQTPVHGLEWIGAIDPETGGTAYNQKFKGKAILTADKSSSTAYMELRSLTSEDSAVYYCTGYYDYDSFTYWGQGTLVTVSAGGGGSGGGGSGGGGSDIVMTQSQKIMSTTVGDRVSITCKASQNVDAAVAWYQQKPGQSPKLLIYSASNRYTGVPDRFTGSGSGTDFTLTISNMQSEDLADYFCQQYDIYPYTFGGGTKLEIK
# notes: Chimeric antigen receptor on primary human T cells; also called 2A2 CAR; non-humanized 2A2 CAR; not shown: spacer, transmembrane, 4-1BB and CD3z parts of the non-humanized CAR are not spelled out; construct described only by re
# B4: humanized 2A2 ROR1 CAR (other)
# chain: EVQLVQSGAEVKKPGASVKVSCKASGYTFSDYEMHWVRQAPGQGLEWLGAIDPETGGTAYNQKFKGRVTMTGDTSISTAYMELSRLTSDDTAVYYCTGYYDYDSFTYWGQGTLVSVSSGGGGSGGGGSGGGGSDIQMTQSPSSLSTSVGDRVTITCKASQNVDAAVAWYQQKPGKAPKLLIYSASNRYTGVASRFSGSGSGTDFTFTISSLQSEDLADYFCQQYDIYPYTFGQGTKLEIKESKYGPPCPPCPMFWVLVVVGGVLACYSLLVTVAFIIFWVKRGRKKLLYIFKQPFMRPVQTTQEEDGCSCRFPEEEEGGCELRVKFSRSADAPAYQQGQNQLYNELNLGRREEYDVLDKRRGRDPEMGGKPRRKNPQEGLYNELQKDKMAEAYSEIGMKGERRRGKGHDGLYQGLSTATKDTYDALHMQALPPR
# notes: Chimeric antigen receptor with an scFv targeting domain, expressed on primary human T cells after lentiviral transduction; also called h2A2 CAR; h2A2
# Biological target: ROR1 on ROR1-positive target cells (K562-ROR1, MDA-MB-231, A549) (human, UniProt Q01973 30-937)
# Assay: cell-based or functional assay
# ROR1 on ROR1-positive target cells (K562-ROR1, MDA-MB-231, A549), sequence (Q01973 30-937): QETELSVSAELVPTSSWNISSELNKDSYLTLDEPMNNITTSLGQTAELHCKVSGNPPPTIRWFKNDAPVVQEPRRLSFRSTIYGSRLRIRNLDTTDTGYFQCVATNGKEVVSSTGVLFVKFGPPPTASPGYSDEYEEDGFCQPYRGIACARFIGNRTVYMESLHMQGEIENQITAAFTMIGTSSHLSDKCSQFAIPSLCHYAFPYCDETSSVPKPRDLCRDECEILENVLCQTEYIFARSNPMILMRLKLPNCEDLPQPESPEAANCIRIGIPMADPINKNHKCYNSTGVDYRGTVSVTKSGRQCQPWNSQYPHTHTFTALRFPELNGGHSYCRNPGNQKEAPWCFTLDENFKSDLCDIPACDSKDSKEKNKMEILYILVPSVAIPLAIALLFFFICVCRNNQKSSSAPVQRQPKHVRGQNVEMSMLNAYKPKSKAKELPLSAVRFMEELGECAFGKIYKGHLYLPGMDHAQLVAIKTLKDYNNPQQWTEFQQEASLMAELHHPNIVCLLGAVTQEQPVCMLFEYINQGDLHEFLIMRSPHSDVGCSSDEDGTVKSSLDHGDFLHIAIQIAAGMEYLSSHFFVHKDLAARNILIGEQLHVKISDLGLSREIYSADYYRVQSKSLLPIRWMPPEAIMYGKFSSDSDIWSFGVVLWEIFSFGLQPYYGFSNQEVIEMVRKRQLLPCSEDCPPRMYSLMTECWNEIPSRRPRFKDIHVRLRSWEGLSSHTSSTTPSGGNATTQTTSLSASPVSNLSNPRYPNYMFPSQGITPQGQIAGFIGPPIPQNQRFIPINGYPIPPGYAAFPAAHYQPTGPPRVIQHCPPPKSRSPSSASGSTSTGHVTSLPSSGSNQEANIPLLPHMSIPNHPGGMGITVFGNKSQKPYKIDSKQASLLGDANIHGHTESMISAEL
row,Binder,"proliferation index with MDA-MB-231 target cells, fold against the non-humanized R12 CAR"
1,B1,~2 fold

# Biological target: T1, Recombinant aggregated ROR1 protein, AlexaFluor647-labeled (UniProt Q01973 30-403, limits assumed, labeled with AlexaFluor647)
# T1 construct: Soluble labelled protein used to stain CAR T cells; also called ROR1 antigen
# Assay: flow cytometry; CAR T cells stained with 5.3 µg/ml AlexaFluor647-labeled aggregated ROR1
# Method: Afterwards the cells were washed with PBS, 0.25% FCS and analyzed by flow cytometry.
# Recombinant aggregated ROR1 protein was labeled with the AlexaFluor647 labeling kit (ThermoFisher Scientific, MA) and used to stain T cells expressing ROR1 CARs. The T cells were washed once in PBS, 0.25% FCS and then resuspended in the same buffer containing a final concentration of 5.3 μg/ml labeled ROR1 protein and monoclonal αEGFRt antibody. After an incubation time of 15 min the cells were washed with an excess of PBS, 0.25% FCS and analyzed by flow cytometry.
# T1 sequence (Q01973 30-403 limits assumed): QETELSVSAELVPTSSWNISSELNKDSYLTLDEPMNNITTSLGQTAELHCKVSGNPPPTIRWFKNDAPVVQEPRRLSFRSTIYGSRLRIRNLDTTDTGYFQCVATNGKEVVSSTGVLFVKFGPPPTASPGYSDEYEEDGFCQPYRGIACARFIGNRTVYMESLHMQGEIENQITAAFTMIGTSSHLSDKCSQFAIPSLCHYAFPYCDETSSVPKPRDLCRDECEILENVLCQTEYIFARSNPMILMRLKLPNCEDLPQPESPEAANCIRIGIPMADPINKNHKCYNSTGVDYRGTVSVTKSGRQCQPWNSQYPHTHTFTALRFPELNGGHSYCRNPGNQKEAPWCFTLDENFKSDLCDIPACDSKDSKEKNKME
Binder,percentage of T cells with a distinct AlexaFluor647 signal,percentage of T cells with high AlexaFluor647 signal
B2,47.6%,0.7%
B3,62.7%,2.61%
B1,79%,7.68%
B4,92.1%,20%
